Columns and labels:
Details in all cases: remark: other sources report otherwise
[1] = molecular target: T1, SARS-CoV-2 C.37 Spike His Protein (R&D, Cat. #10887-CV) (SARS-CoV-2), P0DTC2; experiment: competition ELISA: blocks biotin-ACE2 binding to coated spike
[2] = molecular target: T2, SARS-CoV-2 Spike Protein, wild type (R&D, Cat. #10549-CV) (SARS-CoV-2), P0DTC2; experiment: BLI (ForteBio), mAb on AHC sensor, spike in solution
[3] = molecular target: T3, SARS-CoV-2 AY.1 Spike Protein (R&D, Cat. #10922-CV) (SARS-CoV-2), P0DTC2; experiment: as above
[4] = molecular target: T1, SARS-CoV-2 C.37 Spike His Protein (R&D, …); experiment: as above
[5] = molecular target: T2, SARS-CoV-2 Spike Protein, wild type …; experiment: direct ELISA on coated spike
[6] = molecular target: T3, SARS-CoV-2 AY.1 Spike Protein (R&D, …); experiment: direct ELISA on coated spike
[7] = molecular target: T1, SARS-CoV-2 C.37 Spike His Protein (R&D, …); experiment: direct ELISA on coated spike
[8] = molecular target: T2, SARS-CoV-2 Spike Protein, wild type …; experiment: competition ELISA: blocks biotin-ACE2 binding to coated spike
[9] = molecular target: T3, SARS-CoV-2 AY.1 Spike Protein (R&D, …); experiment: as above
[10] = molecular target: T1, SARS-CoV-2 C.37 Spike His Protein (R&D, …); experiment: as above; remark: listed apart in the source
[11] = molecular target: T3, SARS-CoV-2 AY.1 Spike Protein (R&D, …); experiment: as above; remark: listed apart in the source
[12] = molecular target: T2, SARS-CoV-2 Spike Protein, wild type …; experiment: as above; remark: listed apart in the source

B1: Casirivimab (antibody)
chain 1: QVQLVESGGGLVKPGGSLRLSCAASGFTFSDYYMSWIRQAPGKGLEWVSYITYSGSTIYYADSVKGRFTISRDNAKSSLYLQMNSLRAEDTAVYYCARDRGTTMVPFDYWGQGTLVTVSS
chain 2: DIQMTQSPSSLSASVGDRVTITCQASQDITNYLNWYQQKPGKAPKLLIYAASNLETGVPSRFSGSGSGTDFTFTISGLQPEDIATYYCQQYDNLPLTFGGGTKVEIK
- IC50 [1]: 1.39 nM
- Kd [2]: 2.85 nM
- Kd [3]: 1.08 nM
- Kd [4]: 0.511 nM
- EC50 [5]: 0.0557 nM
- EC50 [6]: 0.041 nM
- EC50 [7]: 0.0507 nM
- IC50 [8]: 3.73 nM
- IC50 [9]: 0.646 nM
- IC50 [10]: 1.9 nM
- IC50 [11]: 0.341 nM
- IC50 [12]: 2.94 nM
